# Source: the DeepSol protein solubility set
# Assay: soluble on expression in E. coli; label from the status in PepcDB or PDB records
row,Sequence,soluble on expression in E. coli
1,MVWMVELKEPFATLWRGKDPFEEVKTLQGEVFRELETRRTLRFEMAGKSYFLKWHRGTTLKEIIKNLLSLRMPVLGADREWNAIHRLRDVGVDTMYGVAFGEKGMNPLTRTSFIITEDLTPTISLEDYCADWATNPPDVRVKRMLIKRVATMVRDMHAAGINHRDCYICHFLLHLPFSGKEEELKISVIDLHRAQLRTRVPGRWRDKDLIGLYFSSMNIGLTQRDIWRFMKVYFAAPLKDILKQEQGLLSQAEAKATKIRERTIRKSL,not soluble
2,MSLMELQGKFLIAMPHLDDYFNRTVVFMCEHNEQGSMGLVINQPTDLSIAELYSKLNFMMKNDRTFGNEMVVAGGPMHTERGFILHKNTLNAFQHTYKVTKELSMTTSADVVETLGSTFAPEKYLVALGCSSWGAGQLEKEIRDNAWLVVSSNDQILFDMPYEDRYAAANQLLGIHPYNFALAQVGHSEGGSHHHHHH,soluble
3,MTGVYADAVLVSVTVGDTVTLHTAGVKNLQPADVKWYFNDIRIAQLDGDLRFNCTDIQCNDRTEIFIDRLRLDRKTGALTIVNITNTHSGVYQLVVIGGGGTIFNVTVHDDPATHYNQVKKNQGESVTFNPGVRRDLIVVLKCLLNNTLIAEISVNQSQICADVQCKERFTDRLKLDNESASLTITNTNITDSGNYTSVILISSDRRFSITREKRFSLTVTSLSSSQPSGGAIAGIVVMLLLLL,not soluble
4,MCIMCELKNFRRNITCFEGYDENSFIGKWYDDGVWDDEEYWKLENDLIEVRKKYPYPMDIPRYVVIGIGTIIDFLMVPNWKLFEIKASPWLPDSVGINERYERLKTMLRYIFTEKDIVNVQFDYYNKK,not soluble
5,STARVICAGFGGQGVMSMGQLLTYAGMLEGKEVSWLPSYGPEMRGGTANCAVTVSNEPVGSPLITDDATAAILLNIPAFEKFKDDVIPGGKIIVNSSLIKEKVDRTDVDVYYIPANELAAELGNDKVANMIMLGAYLKVSDTVDIESVLEAFKKVFGPRKEKFVPLNREALQKGMDATC,not soluble
6,MVDLGFSLYPERYDVTKSKAYIDLCHSYGAKRLFMSLLQLAPADHQMFHCYAELIAYANQLGIRVIADVSPSFISQAGWSDQLIERAHAFGLAGLRLDEALPLAEIVTLTRNPFGLKIELNMSTDKQLLMSLLATDAERSNIIGCHNFYPHEFTGLSWQHFKDMSRFYHEHDIETAAFITAQSASEGPWLLAEGLPTVEDHRHLPIGLQVELMKAIGTIDNILISNQFISEEELAACTQALARPVTTIKVRPIIDLTEVEEQIIGYPHCYRGDVSDYVIRSTMPRLVYAQESIAPRDQSKEVKRGSIIIDNDRYHRYKGELQIALKNFTVSSKANVVAEVREDYLSLLDDLRPWQEFCLEIAPS,not soluble
7,ERSPFPELLPFGEVSVRDSMLYLFVRPDMAGKEVFIPVNGEFLEEVSNLTNASPLNMDIRKTGVRIRMPASMPESFLVLALAFDRNDFVLAGRPQGYPLHMANSSRIYGHSCWDYYTGFKSITGMKWQAVSAPRAIIYTDMEAGKTLRLSVGREEREITLEGGKSEEVSISHDGLSWGKPYVRQVGGVFGMIPDNILRGDSIPLPLTKGWEEMPVGQVEKKPWGEISSCLLVQDIVSDREQTVACHLTFGNGIYVTLNGKQITAELIRETGLAHELTVCLPLQKGKNRLAVKFMNRFGEELIRGVSWPKSYTRYLLPIEGFSLEKVGKKGIPIELRPASVRYQGASASIPNIALL,not soluble
8,MGFDSPRGRGGGGFRGGRGGGSGFTPRGGGGGFRGGDRGRSPGGFRGGDRGRSSSGFRGGDRGRSPGGFRGDREGGFSPRGRGGGFRGGDRGGFRGGDRGGSPWRGGDRGNFRGGDRGGSPWRGGDRGVANRGRGDFSGGSRGGNKFSPRGGGRGGFTPRGRGGNDFSPRGGRGNFQSRGGGSRVGFSDKRKQYDSDGDDDEEEEVPKKKLATGTPFAKQTKPVEDDSGEDEEDEEESDEEPQPPKKTAKSAIATAAEDSDDDEEDDDEEEEESDDDAPQVKKSVAVEEDEEDEEDEEEIEMDEEDEEEEEDEEETEPVAKTPAVKSSLKSVDSTKGKQVNLSKVATPTTVDKKAPATPHPAKTSKNAAGDVPKLNFDDDSDEEDEEDEEVEEEDEEEEEEEEDVPAKKAPVLKQSLSQIAQAIEEDSDDEDEDEEEEEDEEDEEEEEDTTNVPLIKSKADLLKQIAANRAAASAAQDSDEDEDEEDEEDVEEEDEEEEEEEDIPAVKPKVTEKQGGVKRKLDEPTVASKQVKSDGKSIISEEERRRQDRDSRSLFIKEIAKKAKDAEITGLVTGLDSFRRKKNSNFGWLVFNTVADCKKAHDVLSKSKIQGKALYVDFCLSESKAPKEHGVRPINPLQLFINALPGTCNNTDLKNIFRSSTDIKILHASGQPNSKKRAFITFGTVEDAQAAFAKSNGLKVNNHLVDVFYARHQETKVDVKPKKAATPAVQKKIVPKVAADSSGDDSEEVASSDEGIQEVEEEQPKQKKLVKKVEPKTIPRVQQKKPQFKKTGFKGKK,not soluble
9,MGSSHHHHHHSSGLVPRGSKITVNPESKAVLAGQFVKLCCRATGHPFVQYQWFKMNKEIPNGNTSELIFNAVHVKDAGFYVCRVNNNFTFEFSQWSQLDVCDIPESFQRSVDGVSESKLQICVEPTSQKLMPGSTLVLQCVAVGSPIPHYQWFKNELPLTHETKKLYMVPYVDLEHQGTYWCHVYNDRDSQDSKKVEIIIDELNNLGHPDNKEQTTDQ,soluble
10,MPMRYWLMKSEPDETSIDHLAAEPARLFEWTGVRNYQARNFMRDDMQPGDLLLFWHSSCPEPGIAGIAEVAAAAHADSSQFDPASPYHDPKSDPADPRWLCVDVRFVRKTRLLPPAELRRHPPLEGMTVLKRGNRLSITPVTAEEWAYLMDLLDIRRAGLEHHHHHH,soluble
11,MYDTIVIGAGQAGISIGYYLKQSDQKFIILDKSHEVGESWKDRYDSLVLFTSRMYSSLPGMHLEGEKHGFPSKNEIVAYLKKYVKKFEIPIQLRTEVISVLKIKNYFLIKTNREEYQTKNLVIATGPFHTPNIPSISKDLSDNINQLHSSQYKNSKQLAYGNVLVVGGGNSGAQIAVELSKERVTYLACSNKLVYFPLMIGKRSIFWWFDKLGVLHASHTSIVGKFIQKKGDPVFGHELKHAIKQKEIILKKRVIAAKQNEIIFKDSSTLEVNNIIWATGFRNPLCWINIKGVLDQEGRIIHHRGVSPVEGLYFIGLPWQHKRGSALLQGVGNDAEYIVKQMNGELEHHHHHH,soluble
12,MGSDKIHHHHHHMKSMWCIHDRIFLKKTREVFDVDIKAYKERVEKAVEYLKGQIDETPEIAIILGSGLSVIADEVEKEGTSKKIPYSEIPGFPISTAPGHKGELIFGKLFGKNVMLMNGRFHYYEGYSMKEVTFPIRVMQLLGVEILIVTNAAGGLNPDFEVGRPMIITDHINFMGDNPLIGPNVDEWGPRFPDMSEPYDKELIELAYNSARELGIPVYQGVYVAVTGPCFETPAELRMLRKFGADAVGMSTVPEVIVARHGQIRVLGISAITDRAVPEDLKPLTAEEVLEVAEKTGRKIAQIIFEVVRKL,not soluble
13,MGSDKIHHHHHHMQFLDDSLHPENQDKVVITVAPYGPEWMPQDFPEDIPVTMEEQVQKAVDCYNAGATVLHLHVRELDGKGSKRLSKFNELIAGVRAAVPDMIIQVGGSISFAPEDDGQAAKWLSDDTRHMLADLDPKPDQVTVAINTTQMNIMELLYPEYLEGTSLSHPAYVEAYREMTVPAGPGWVEEHLRRLSNAGIQPHFQLTGIHAMETLERMVRAGKYKGPLNLTWIGIGGGFDGPNPFNFVNFVHRAPDGCTLTAESLLKNVLPFNMMAMAMGLHPRCGIEDTIIDQHGNRMTSVQQIEQCVRVARELGREIASGKEAREIYRIGTWYDSAEETLEAHGMAPNRKAGQKNLPLRKAA,not soluble
14,MSLLFASLLKNRLRLGQLTMIDAKGQTHVLGGDGPGPRVTIRLTDPSLHRRLFLRPHLAIGEAYMEGTLIIERGGLRDFLELIGANLAAIEGSPWVALGQRLSGLMRRLQQRNPVWRSRRNVAHHYDLSGAFYDLFLDSDRQYSCAYFARDGDSLEQAQDNKKRLIAAKLMLRPGQHVLDIGCGWGGLALHLARHHDVRVTGITLSQEQAALARERVRAAGLQDRVTILLKDYRDLDGRFDRVVSVGMLEHVGAPQLADYFRHVGGLLSDDGVALIHSIGRMEPPGSTNVWIRKYIFPGGYSPALSETLAAVEGSGLYLTDAEILRLHYARTLAEWTRRFQANREAARALYDERFCRMWEFYLLGCEMAFRHGNQMVFQLQLARREGHHHHHH,soluble
15,MPIGHSREVLVRLRDILALLADGCKTTSLIQQRLGLSHGRAKALIYVLEKEGRVTRVAFGNVALVCLSMDQYRQLVDGMIREVERLVTTNKLKFISPPRLHDLIIKDPQARKFFSSIIPIAHRTAIILSFLNHLLKMIYGEPYVKTDETVYLTANRKVHIEPPAK,soluble
16,MKIMIFICGEGLGHTSRCLALGKELLNAGHEIKFGAYGYSKELVEKTGYTAQEIPSEIKLVGKAGSLDLTGSIEATLKSAQLLGGPKLLKLLREFKPDVVVSDSYYLGTLAAMVLKLPVYLIINQSNMEEFFKNRGVPVRIIGKLTKKFYKEVFEKTDKILEHHHHHH,not soluble
17,MGSDKIHHHHHHMMHDDQVNIDIDIARKMIRDQFPQYRHEDITSVGSSGTVNAIFRIGSKSAARFPLRAMNPTECADMLRSEAAAMVEIGKHCLFPTPQPIGIGEPGPRYPMPWALQTWIEGEVATPHGLSGSTMFALDLARLVASLRQADTRGRRFDGQGRGGHLPDHDDWMAVCLENSEGLLDVARLRDLWARLRELPCAGSVVMSHKDLIPANLLVQGERLVGVLDGGSFGPADPSLDLVVGWHLLDRERRAAFRSGLQVEDLLWKRGAAWAFQQAMGLVWYYRRTNRAMSALGRSTLSRILADPDI,not soluble
18,MMTADAGICRPFKTKPARTIFGRFPARTVCLCASAIWTAAKSRCGWTAGVPSSLPTLPHPANAIPPNTVCSETQPSGTRKAAKPFSALPMPTAIRSKLPAAPVKRGSLFEPPSRFFGRFFVSDGRFFVSDLFCSSASGRVRAA,not soluble
19,MPRSTWFKALLLLVALWAPLSQAETGWQPIQETIRKSDKDNRQYQAIRLDNGMVVLLVSDPQAVKSLSALVVPVGSLEDPEAYQGLAHYLEHMSLMGSKKYPQADSLAEYLKMHGGSHNASTAPYRTAFYLEVENDALPGAVDRLADAIAEPLLDKKYAERERNAVNAELTMARTRDGMRMAQVSAETINPAHPGSKFSGGNLETLSDKPGNPVQQALKDFHEKYYSANLMKAVIYSNKPLPELAKMAADTFGRVPNKESKKPEITVPVVTDAQKGIIIHYVPALPRKVLRVEFRIDNNSAKFRSKTDELITYLIGNRSPGTLSDWLQKQGLVEGISANSDPIVNGNSGVLAISASLTDKGLANRDQVVAAIFSYLNLLREKGIDKQYFDELANVLDIDFRYPSITRDMDYVEWLADTMIRVPVEHTLDAVNIADRYDAKAVKERLAMMTPQNARIWYISPKEPHNKTAYFVDAPYQVDKISAQTFADWQKKAADIALSLPELNPYIPDDFSLIKSEKKYDHPELIVDESNLRVVYAPSRYFASEPKADVSLILRNPKAMDSARNQVMFALNDYLAGLALDQLSNQASVGGISFSTNANNGLMVNANGYTQRLPQLFQALLEGYFSYTATEDQLEQAKSWYNQMMDSAEKGKAFEQAIMPAQMLSQVPYFSRDERRKILPSITLKEVLAYRDALKSGARPEFMVIGNMTEAQATTLARDVQKQLGADGSEWCRNKDVVVDKKQSVIFEKAGNSTDSALAAVFVPTGYDEYTSSAYSSLLGQIVQPWFYNQLRTEEQLGYAVFAFPMSVGRQWGMGFLLQSNDKQPSFLWERYKAFFPTAEAKLRAMKPDEFAQIQQAVITQMLQAPQTLGEEASKLSKDFDRGNMRFDSRDKIVAQIKLLTPQKLADFFHQAVVEPQGMAILSQISGSQNGKAEYVHPEGWKVWENVSALQQTMPLMSEKNE,soluble
20,GPLGSMASATLGSSSSSASPAVAELCQNTPETFLEASKLLLTYADNILRNPSDEKYRSIRIGNTAFSTRLLPVRGAVECLFEMGFEEGETHLIFPKKASVEQLQKIRDLIAIERSSRLDGSSKK,soluble
